# Reference: patent US20230031853A1
# How the values were obtained:
# splitGFP(1-10) [1] = test: cell-based or functional assay
# splitGFP(1-10) [2] = test: in vitro splitGFP complementation, fluorescence; reference pAbBD-S11
"fold-increase in median splitGFP fluorescence, flow cytometry 6 hours after electroporation into HEK293T splitGFP(1-10) cells (splitGFP(1-10) [1]) [fold]",fluorescence relative to pAbBD-S11 (splitGFP(1-10) [2]) [fold],Substance
33.5,–,pAbBD-S11
39.4,2,Ritux-(pAbBD-S11)2 (antibody)
